According to patent US20220380463A1 (Adimab, published 2022):
Substitutions are numbered along the chain they refer to.

T1: Cynomolgus CD3εδ Fc heterodimer (Cy CD3ε Fc / CD3δ Fc-HIS) (cynomolgus, UniProt Q95LI8 22-100)
T1 chain 1: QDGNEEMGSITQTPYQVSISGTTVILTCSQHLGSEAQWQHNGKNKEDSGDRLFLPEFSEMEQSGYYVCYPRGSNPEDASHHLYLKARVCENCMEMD
T1 chain 2: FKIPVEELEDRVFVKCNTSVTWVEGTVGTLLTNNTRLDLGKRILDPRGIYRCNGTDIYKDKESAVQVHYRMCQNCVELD

B1: SAD10320_P04_A11 (ADI-57386) (antibody, V domains shown)
VH: QVQLVQSGAEVKKPGASVKVSCKASGFNIKDYYMHWVRQAPGQRLQWMGWIDLENANTIYDAKFQGRVTITRDTSASTAYMELSSLRSEDTAVYYCARDARHRYFYDVWGQGTLVTVSS
VL: DIVMTQSPDSLAVSLGERATINCKSSQSLLNARTGKNYLAWYQQKPGQPPKLLIYWASTRESGVPDRFSGSGSGTDFTLTISSLQAEDVAVYYCKQSYSHGTFGGGTKVEIK
notes: IgG; also called Ab109
B2: SAD10319_P05_C05 (ADI-57405) (antibody, V domains shown)
VH: QVQLVQSGAEVKKPGASVKVSCKASGYTFTSYNMHWVRQAPGPRLEWMGWIDAGTGATHYSQKFQGRVTITRDTSASTAYMELSSLRSEDTAVYYCARDAYHHYFYDVWGQGTLVTVSS
VL: B1 VL with H100R, G101R
notes: IgG; also called Ab132
B3: SAD10319_P05_D02 (ADI-57407) (antibody, V domains shown)
VH: B2 VH with T30D, N33T, W50S, D52N, A57N, H59D, A100H, H102G
VL: B1 VL with H100R, G101R
notes: IgG; also called Ab134
B4: SAD10319_P05_B03 (ADI-57400) (antibody, V domains shown)
VH: B2 VH with T30E, N33V, P43Q, D52H, A53S, A57N, H59D, H102G, V108H
VL: B1 VL with H100R, G101R
notes: IgG; also called Ab127
B5: SAD10320_P04_A12 (ADI-57391) (antibody, V domains shown)
VH: B1 VH with Q46E, R101Y, H102G, R103H, Y104V
VL: B1 VL with S99H, G101R
notes: IgG; also called Ab117
B6: SAD10319_P06_B10 (ADI-57421) (antibody, V domains shown)
VH: B2 VH with S31E, N33V, P43Q, W50D, H59K
VL: B1 VL with H100R, G101R
notes: IgG; also called Ab150
B7: SAD10320_P04_E11 (ADI-57388) (antibody, V domains shown)
VH: B1 VH with Q46E, R101Y, H102G, R103H, Y104D
VL: B1 VL with S99G, G101R
notes: IgG; also called Ab111
B8: SAD10319_P05_G04 (ADI-57416) (antibody, V domains shown)
VH: B2 VH with N33G, P43Q, A53P, G54V, H59D, Y101H, H102G, H103R, V108H
VL: B1 VL with H100R, G101R
notes: IgG; also called Ab144
B9: SAD10319_P05_C03 (ADI-57404) (antibody, V domains shown)
VH: B2 VH with P43Q, W50S, H59D
VL: B1 VL with H100R, G101R
notes: IgG; also called Ab131
B10: SAD10319_P05_D01 (ADI-57406) (antibody, V domains shown)
VH: B2 VH with S31E, N33D, P43Q, R44T, H59V, H102G, H103R, V108H
VL: B1 VL with H100R, G101R
notes: IgG; also called Ab133
B11: SAD10319_P05_D03 (ADI-57408) (antibody, V domains shown)
VH: B2 VH with S31D, Y32D, N33A, P43H, A57N, H59Y, R98H, H102G
VL: B1 VL with H100R, G101R
notes: IgG; also called Ab135
B12: SAD10319_P05_D05 (ADI-57410) (antibody, V domains shown)
VH: B2 VH with T30A, S31D, N33A, P43H, W50D, D52I, H59K, A100H, H102G
VL: B1 VL with H100R, G101R
notes: IgG; also called Ab138
B13: SAD10319_P05_B02 (ADI-57399) (antibody, V domains shown)
VH: B2 VH with R44S, W50S, H59D
VL: B1 VL with H100R, G101R
notes: IgG; also called Ab126
B14: SAD10320_P04_F11 (ADI-57389) (antibody, V domains shown)
VH: B1 VH with Q46E, R101Y, H102G, R103H, Y104E
VL: B1 VL with S97G, Y98H, H100R, G101R
notes: IgG; also called Ab112
B15: SAD10320_P04_G11 (ADI-57390) (antibody, V domains shown)
VH: B1 VH with Q46E, R101Y, H102R, R103H, Y104E
VL: B1 VL with S99Y, G101R
notes: IgG; also called Ab115
B16: SAD10319_P06_E10 (ADI-57428) (antibody, V domains shown)
VH: B2 VH with S31Q, N33D, P43Q, R44T, W50D, D52N, A57V, H59V, H102G, H103R
VL: B1 VL with H100R, G101R
notes: IgG; also called Ab157
B17: SAD10319_P06_C12 (ADI-57424) (antibody, V domains shown)
VH: B2 VH with T30D, N33E, P43H, D52N, A53P, G54L, H59K, A100H, H102G
VL: B1 VL with H100R, G101R
notes: IgG; also called Ab153
B18: SAD10319_P05_A01 (ADI-57395) (antibody, V domains shown)
VH: B2 VH with S31A, N33T, P43H, D52N, A53P, G54D, H59D
VL: B1 VL with H100R, G101R
notes: IgG; also called Ab121
B19: SAD10319_P05_G01 (ADI-57413) (antibody, V domains shown)
VH: B2 VH with T30N, S31N, N33A, P43Q, R44S, A57N, H59D, Y101H, H103R
VL: B1 VL with H100R, G101R
B20: SAD10319_P06_A10 (ADI-57419) (antibody, V domains shown)
VH: B2 VH with S31G, N33E, P43Q, D52N, A53P, G54V, H59A, H102G, V108H
VL: B1 VL with H100R, G101R
notes: IgG; also called Ab148
B21: SAD10319_P05_A05 (ADI-57398) (antibody, V domains shown)
VH: B2 VH with S31A, N33T, P43Q, D52N, A53P, G54D, H59D
VL: B1 VL with H100R, G101R
notes: IgG; also called Ab124
B22: SAD10320_P04_E12 (ADI-57393) (antibody, V domains shown)
VH: B1 VH with Q46E, R101Y, H102G, R103H, Y104T
VL: B1 VL with S99H, H100V, G101R
notes: IgG; also called Ab119

Target: T1, Cynomolgus CD3εδ Fc heterodimer (Cy …)
Test: BLI (Octet), IgG on AHC sensor, pH 6.0

| koff [s⁻¹] | Binder |
| --- | --- |
| 0.00741 | B1 |
| 0.00821 | B2 |
| 0.0241 | B3 |
| 0.0346 | B4 |
| 0.0168 | B5 |
| 0.002 | B6 |
| 0.00297 | B7 |
| 0.00389 | B8 |
| 0.00327 | B9 |
| 0.00929 | B10 |
| 0.0233 | B11 |
| 0.0158 | B12 |
| 0.00411 | B13 |
| 0.00192 | B14 |
| 0.00276 | B15 |
| 0.00575 | B16 |
| 0.00756 | B17 |
| 0.0251 | B18 |
| 0.0236 | B19 |
| 0.0246 | B20 |
| 0.0118 | B21 |
| 0.0108 | B22 |
